Test [1] deals with human glucagon receptor (GCGR) (human, UniProt P47871 26-477). The test is described as follows: cell-based or functional assay.
The target of test [2] is human GLP-1 receptor (GLP-1R) (human, UniProt P43220 24-463). The experiment in a line: cell-based or functional assay.

Where no end group is shown, it is not given here. [ ]: non-standard residue; d: D form. Aib = CC(C)(N)C(=O)O

human GLP-1 receptor (GLP-1R), sequence (P43220 24-463): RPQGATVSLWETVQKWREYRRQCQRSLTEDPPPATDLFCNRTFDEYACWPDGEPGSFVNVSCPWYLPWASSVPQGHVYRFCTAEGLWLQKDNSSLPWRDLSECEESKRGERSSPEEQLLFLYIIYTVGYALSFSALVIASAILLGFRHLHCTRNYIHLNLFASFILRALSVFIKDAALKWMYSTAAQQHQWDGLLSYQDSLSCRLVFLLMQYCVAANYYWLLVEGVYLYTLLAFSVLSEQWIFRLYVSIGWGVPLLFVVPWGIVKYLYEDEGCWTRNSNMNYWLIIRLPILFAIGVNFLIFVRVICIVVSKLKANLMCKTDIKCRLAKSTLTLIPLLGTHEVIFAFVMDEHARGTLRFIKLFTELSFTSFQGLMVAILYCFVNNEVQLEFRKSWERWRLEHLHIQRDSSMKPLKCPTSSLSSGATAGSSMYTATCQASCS

B1: Compound A20 (peptide)
peptide: YSHGTFTSDYSKYLD[Aib]KRAQEFV[Aib]WLEDEPSSGKPPPS-OH
modifications: N-terminus assumed
SMILES: CC(C)C[C@H](NC(=O)[C@H](Cc1ccc(O)cc1)NC(=O)[C@H](CCCCN)NC(=O)[C@H](CO)NC(=O)[C@H](Cc1ccc(O)cc1)NC(=O)[C@H](CC(=O)O)NC(=O)[C@H](CO)NC(=O)[C@@H](NC(=O)[C@H](Cc1ccccc1)NC(=O)[C@@H](NC(=O)CNC(=O)[C@H](Cc1c[nH]cn1)NC(=O)[C@H](CO)NC(=O)[C@@H](N)Cc1ccc(O)cc1)[C@@H](C)O)[C@@H](C)O)C(=O)N[C@@H](CC(=O)O)C(=O)NC(C)(C)C(=O)N[C@@H](CCCCN)C(=O)N[C@@H](CCCNC(=N)N)C(=O)N[C@@H](C)C(=O)N[C@@H](CCC(N)=O)C(=O)N[C@@H](CCC(=O)O)C(=O)N[C@@H](Cc1ccccc1)C(=O)N[C@H](C(=O)NC(C)(C)C(=O)N[C@@H](Cc1c[nH]c2ccccc12)C(=O)N[C@@H](CC(C)C)C(=O)N[C@@H](CCC(=O)O)C(=O)N[C@@H](CC(=O)O)C(=O)N[C@@H](CCC(=O)O)C(=O)N1CCC[C@H]1C(=O)N[C@@H](CO)C(=O)N[C@@H](CO)C(=O)NCC(=O)N[C@@H](CCCCN)C(=O)N1CCC[C@H]1C(=O)N1CCC[C@H]1C(=O)N1CCC[C@H]1C(=O)N[C@@H](CO)C(=O)O)C(C)C
For B1, the “hGCGR pEC50 (cAMP)” value in test [1] was found to be 13.3 pEC50. Moreover, the “hGLP1 pEC50 (cAMP)” value in test [2] is under 9 pEC50.

B2: Compound A16 (peptide)
peptide: YSHGTFTSDYSKYLD[Aib]TRAQEFV[Aib]WLEDEPSSGAPPPS-OH
modifications: N-terminus assumed
SMILES: CC(C)C[C@H](NC(=O)[C@H](Cc1ccc(O)cc1)NC(=O)[C@H](CCCCN)NC(=O)[C@H](CO)NC(=O)[C@H](Cc1ccc(O)cc1)NC(=O)[C@H](CC(=O)O)NC(=O)[C@H](CO)NC(=O)[C@@H](NC(=O)[C@H](Cc1ccccc1)NC(=O)[C@@H](NC(=O)CNC(=O)[C@H](Cc1c[nH]cn1)NC(=O)[C@H](CO)NC(=O)[C@@H](N)Cc1ccc(O)cc1)[C@@H](C)O)[C@@H](C)O)C(=O)N[C@@H](CC(=O)O)C(=O)NC(C)(C)C(=O)N[C@H](C(=O)N[C@@H](CCCNC(=N)N)C(=O)N[C@@H](C)C(=O)N[C@@H](CCC(N)=O)C(=O)N[C@@H](CCC(=O)O)C(=O)N[C@@H](Cc1ccccc1)C(=O)N[C@H](C(=O)NC(C)(C)C(=O)N[C@@H](Cc1c[nH]c2ccccc12)C(=O)N[C@@H](CC(C)C)C(=O)N[C@@H](CCC(=O)O)C(=O)N[C@@H](CC(=O)O)C(=O)N[C@@H](CCC(=O)O)C(=O)N1CCC[C@H]1C(=O)N[C@@H](CO)C(=O)N[C@@H](CO)C(=O)NCC(=O)N[C@@H](C)C(=O)N1CCC[C@H]1C(=O)N1CCC[C@H]1C(=O)N1CCC[C@H]1C(=O)N[C@@H](CO)C(=O)O)C(C)C)[C@@H](C)O
Turning to B2, the “hGCGR pEC50 (cAMP)” value in test [1] was 11.9 pEC50. The “hGLP1 pEC50 (cAMP)” value in test [2] is under 9 pEC50.

B3: Compound A17 (peptide)
peptide: YSHGTFTSDYSKYLD[Aib]ERAQEFV[Aib]WLEDEPSSGAPPPS-OH
modifications: N-terminus assumed
SMILES: CC(C)C[C@H](NC(=O)[C@H](Cc1ccc(O)cc1)NC(=O)[C@H](CCCCN)NC(=O)[C@H](CO)NC(=O)[C@H](Cc1ccc(O)cc1)NC(=O)[C@H](CC(=O)O)NC(=O)[C@H](CO)NC(=O)[C@@H](NC(=O)[C@H](Cc1ccccc1)NC(=O)[C@@H](NC(=O)CNC(=O)[C@H](Cc1c[nH]cn1)NC(=O)[C@H](CO)NC(=O)[C@@H](N)Cc1ccc(O)cc1)[C@@H](C)O)[C@@H](C)O)C(=O)N[C@@H](CC(=O)O)C(=O)NC(C)(C)C(=O)N[C@@H](CCC(=O)O)C(=O)N[C@@H](CCCNC(=N)N)C(=O)N[C@@H](C)C(=O)N[C@@H](CCC(N)=O)C(=O)N[C@@H](CCC(=O)O)C(=O)N[C@@H](Cc1ccccc1)C(=O)N[C@H](C(=O)NC(C)(C)C(=O)N[C@@H](Cc1c[nH]c2ccccc12)C(=O)N[C@@H](CC(C)C)C(=O)N[C@@H](CCC(=O)O)C(=O)N[C@@H](CC(=O)O)C(=O)N[C@@H](CCC(=O)O)C(=O)N1CCC[C@H]1C(=O)N[C@@H](CO)C(=O)N[C@@H](CO)C(=O)NCC(=O)N[C@@H](C)C(=O)N1CCC[C@H]1C(=O)N1CCC[C@H]1C(=O)N1CCC[C@H]1C(=O)N[C@@H](CO)C(=O)O)C(C)C
With B3, the “hGCGR pEC50 (cAMP)” value in test [1] came out at 11.1 pEC50. In addition, the “hGLP1 pEC50 (cAMP)” value in test [2] was under 9 pEC50.

B4: Compound A19 (peptide)
peptide: YSHGTFTSDYSKWLD[Aib]SRAQEFV[Aib]WLEDEPSSGAPPPS-OH
modifications: N-terminus assumed
SMILES: CC(C)C[C@H](NC(=O)[C@H](Cc1c[nH]c2ccccc12)NC(=O)[C@H](CCCCN)NC(=O)[C@H](CO)NC(=O)[C@H](Cc1ccc(O)cc1)NC(=O)[C@H](CC(=O)O)NC(=O)[C@H](CO)NC(=O)[C@@H](NC(=O)[C@H](Cc1ccccc1)NC(=O)[C@@H](NC(=O)CNC(=O)[C@H](Cc1c[nH]cn1)NC(=O)[C@H](CO)NC(=O)[C@@H](N)Cc1ccc(O)cc1)[C@@H](C)O)[C@@H](C)O)C(=O)N[C@@H](CC(=O)O)C(=O)NC(C)(C)C(=O)N[C@@H](CO)C(=O)N[C@@H](CCCNC(=N)N)C(=O)N[C@@H](C)C(=O)N[C@@H](CCC(N)=O)C(=O)N[C@@H](CCC(=O)O)C(=O)N[C@@H](Cc1ccccc1)C(=O)N[C@H](C(=O)NC(C)(C)C(=O)N[C@@H](Cc1c[nH]c2ccccc12)C(=O)N[C@@H](CC(C)C)C(=O)N[C@@H](CCC(=O)O)C(=O)N[C@@H](CC(=O)O)C(=O)N[C@@H](CCC(=O)O)C(=O)N1CCC[C@H]1C(=O)N[C@@H](CO)C(=O)N[C@@H](CO)C(=O)NCC(=O)N[C@@H](C)C(=O)N1CCC[C@H]1C(=O)N1CCC[C@H]1C(=O)N1CCC[C@H]1C(=O)N[C@@H](CO)C(=O)O)C(C)C
For the molecule B4, the “hGCGR pEC50 (cAMP)” value in test [1] came to 11 pEC50. Further, the “hGLP1 pEC50 (cAMP)” value in test [2] is under 9 pEC50.

B5: Compound A21 (peptide)
peptide: YSHGTFTSDYSKYLD[Aib]KRAQEFV[Aib]WLEDEPSSGEPPPS-OH
modifications: N-terminus assumed
SMILES: CC(C)C[C@H](NC(=O)[C@H](Cc1ccc(O)cc1)NC(=O)[C@H](CCCCN)NC(=O)[C@H](CO)NC(=O)[C@H](Cc1ccc(O)cc1)NC(=O)[C@H](CC(=O)O)NC(=O)[C@H](CO)NC(=O)[C@@H](NC(=O)[C@H](Cc1ccccc1)NC(=O)[C@@H](NC(=O)CNC(=O)[C@H](Cc1c[nH]cn1)NC(=O)[C@H](CO)NC(=O)[C@@H](N)Cc1ccc(O)cc1)[C@@H](C)O)[C@@H](C)O)C(=O)N[C@@H](CC(=O)O)C(=O)NC(C)(C)C(=O)N[C@@H](CCCCN)C(=O)N[C@@H](CCCNC(=N)N)C(=O)N[C@@H](C)C(=O)N[C@@H](CCC(N)=O)C(=O)N[C@@H](CCC(=O)O)C(=O)N[C@@H](Cc1ccccc1)C(=O)N[C@H](C(=O)NC(C)(C)C(=O)N[C@@H](Cc1c[nH]c2ccccc12)C(=O)N[C@@H](CC(C)C)C(=O)N[C@@H](CCC(=O)O)C(=O)N[C@@H](CC(=O)O)C(=O)N[C@@H](CCC(=O)O)C(=O)N1CCC[C@H]1C(=O)N[C@@H](CO)C(=O)N[C@@H](CO)C(=O)NCC(=O)N[C@@H](CCC(=O)O)C(=O)N1CCC[C@H]1C(=O)N1CCC[C@H]1C(=O)N1CCC[C@H]1C(=O)N[C@@H](CO)C(=O)O)C(C)C
In the case of B5, in test [1], the “hGCGR pEC50 (cAMP)” value was determined as 11.1 pEC50. Besides, in test [2], the “hGLP1 pEC50 (cAMP)” value was under 9 pEC50.

B6: Compound A18 (peptide)
peptide: YSHGTFTSDYSKWLD[Aib]ARAQEFV[Aib]WLEDEPSSGAPPPS-OH
modifications: N-terminus assumed
SMILES: CC(C)C[C@H](NC(=O)[C@H](Cc1c[nH]c2ccccc12)NC(=O)[C@H](CCCCN)NC(=O)[C@H](CO)NC(=O)[C@H](Cc1ccc(O)cc1)NC(=O)[C@H](CC(=O)O)NC(=O)[C@H](CO)NC(=O)[C@@H](NC(=O)[C@H](Cc1ccccc1)NC(=O)[C@@H](NC(=O)CNC(=O)[C@H](Cc1c[nH]cn1)NC(=O)[C@H](CO)NC(=O)[C@@H](N)Cc1ccc(O)cc1)[C@@H](C)O)[C@@H](C)O)C(=O)N[C@@H](CC(=O)O)C(=O)NC(C)(C)C(=O)N[C@@H](C)C(=O)N[C@@H](CCCNC(=N)N)C(=O)N[C@@H](C)C(=O)N[C@@H](CCC(N)=O)C(=O)N[C@@H](CCC(=O)O)C(=O)N[C@@H](Cc1ccccc1)C(=O)N[C@H](C(=O)NC(C)(C)C(=O)N[C@@H](Cc1c[nH]c2ccccc12)C(=O)N[C@@H](CC(C)C)C(=O)N[C@@H](CCC(=O)O)C(=O)N[C@@H](CC(=O)O)C(=O)N[C@@H](CCC(=O)O)C(=O)N1CCC[C@H]1C(=O)N[C@@H](CO)C(=O)N[C@@H](CO)C(=O)NCC(=O)N[C@@H](C)C(=O)N1CCC[C@H]1C(=O)N1CCC[C@H]1C(=O)N1CCC[C@H]1C(=O)N[C@@H](CO)C(=O)O)C(C)C
B6: the “hGCGR pEC50 (cAMP)” value in test [1] was 12.4 pEC50. In addition, in test [2], the “hGLP1 pEC50 (cAMP)” value was under 9 pEC50.

B7: Compound A15 (peptide)
peptide: YSHGTFTSDYSKYLD[Aib]SRAQEFV[Aib]WLEDEPSSGAPPPS-OH
modifications: N-terminus assumed
SMILES: CC(C)C[C@H](NC(=O)[C@H](Cc1ccc(O)cc1)NC(=O)[C@H](CCCCN)NC(=O)[C@H](CO)NC(=O)[C@H](Cc1ccc(O)cc1)NC(=O)[C@H](CC(=O)O)NC(=O)[C@H](CO)NC(=O)[C@@H](NC(=O)[C@H](Cc1ccccc1)NC(=O)[C@@H](NC(=O)CNC(=O)[C@H](Cc1c[nH]cn1)NC(=O)[C@H](CO)NC(=O)[C@@H](N)Cc1ccc(O)cc1)[C@@H](C)O)[C@@H](C)O)C(=O)N[C@@H](CC(=O)O)C(=O)NC(C)(C)C(=O)N[C@@H](CO)C(=O)N[C@@H](CCCNC(=N)N)C(=O)N[C@@H](C)C(=O)N[C@@H](CCC(N)=O)C(=O)N[C@@H](CCC(=O)O)C(=O)N[C@@H](Cc1ccccc1)C(=O)N[C@H](C(=O)NC(C)(C)C(=O)N[C@@H](Cc1c[nH]c2ccccc12)C(=O)N[C@@H](CC(C)C)C(=O)N[C@@H](CCC(=O)O)C(=O)N[C@@H](CC(=O)O)C(=O)N[C@@H](CCC(=O)O)C(=O)N1CCC[C@H]1C(=O)N[C@@H](CO)C(=O)N[C@@H](CO)C(=O)NCC(=O)N[C@@H](C)C(=O)N1CCC[C@H]1C(=O)N1CCC[C@H]1C(=O)N1CCC[C@H]1C(=O)N[C@@H](CO)C(=O)O)C(C)C
On to B7, for which the “hGCGR pEC50 (cAMP)” value in test [1] stood at 11.4 pEC50. The “hGLP1 pEC50 (cAMP)” value in test [2] was under 9 pEC50.
